According to article PMC11418127, “Structures of LIG1 uncover the mechanism of sugar discrimination against 5′-RNA-DNA junctions during ribonucleotide excision repair”:

Assays:
[1] = molecular target: LIG1 EE/AA (C-terminal, Δ261) (UniProt P18858 262-919, E346A;E592A); experiment: X-ray crystallography; AMP covalently bound to K568 (step 1); 1 mM ATP, 1 mM EDTA; Crystallization: 20 mM Tris-HCl pH 7.0, 200 mM NaCl, 1 mM DTT, 1 mM EDTA, 1 mM ATP, LIG1 27 mg/ml, DNA:protein 1.4:1, hanging drop at 20 °C; conditions: protein: recombinant; tags: 6xHis; nicked duplex: 18-nt template, 11-nt upstream, 7-nt downstream; blunt outer ends
[2] = molecular target: LIG1 WT (C-terminal, Δ261) (UniProt P18858 262-919); experiment: as above; conditions: protein: recombinant; tags: 6xHis; nicked duplex: 18-nt template, 11-nt upstream, 7-nt downstream; blunt outer ends
Sequence of LIG1 WT (C-terminal, Δ261) (P18858 262-919, stated change not applied): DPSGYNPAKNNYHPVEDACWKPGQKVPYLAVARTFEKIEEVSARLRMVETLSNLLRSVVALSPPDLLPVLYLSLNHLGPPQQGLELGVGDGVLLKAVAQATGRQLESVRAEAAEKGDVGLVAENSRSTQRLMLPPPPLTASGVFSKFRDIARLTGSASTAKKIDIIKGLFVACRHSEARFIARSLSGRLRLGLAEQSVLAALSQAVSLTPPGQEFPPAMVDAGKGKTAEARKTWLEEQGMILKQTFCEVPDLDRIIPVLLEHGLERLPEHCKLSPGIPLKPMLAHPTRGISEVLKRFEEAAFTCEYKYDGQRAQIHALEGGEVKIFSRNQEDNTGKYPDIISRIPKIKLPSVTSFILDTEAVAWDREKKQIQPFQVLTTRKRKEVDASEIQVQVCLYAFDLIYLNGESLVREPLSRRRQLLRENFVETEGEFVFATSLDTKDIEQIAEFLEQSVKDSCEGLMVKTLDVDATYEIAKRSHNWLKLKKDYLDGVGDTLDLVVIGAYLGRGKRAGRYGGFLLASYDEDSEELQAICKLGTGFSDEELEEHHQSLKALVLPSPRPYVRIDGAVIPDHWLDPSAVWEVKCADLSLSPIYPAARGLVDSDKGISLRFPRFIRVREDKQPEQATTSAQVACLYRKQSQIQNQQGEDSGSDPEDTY

Sequence of LIG1 EE/AA (C-terminal, Δ261) (P18858 262-919 E346A/E592A): as the sequence (P18858 262-919, stated change not applied) above, with E85A, E331A counted along it

B1: nick DNA 5'-rG:C (mixed)
DNA 1: GTCCGACCACGCATCAGC
DNA 2: GCTGATGCGTG
DNA 3: GTCGGAC
modifications: ribonucleotide rG at position 1 of downstream strand (strand 3); 5'-phosphate on strand 3
**Q.** Does B1 bind [1]?
**A.** binds

**Q.** Does B1 bind [2]?
**A.** binds
